# B1: F gene end RNA (positive sense) (ssRNA)
# RNA: AGUUAAUUAAAAA
# B2: leader RNA 1-12 (positive sense) (ssRNA)
# RNA: ACGCGAAAAAAU
# Assays:
# HMPV M2-1 [1] = target: T1, HMPV M2-1 (Human metapneumovirus strain NL1-00 (A1), UniProt Q8QN58 1-187); assay: SAXS titration; Zn2+ (zinc finger intact); 150 mM NaCl, 500 mM NDSB-201; closed conformation induced, Rg up to ~8 nm, aggregation; SAXS: 20 mM Tris pH 7.5, 150 mM NaCl, 500 mM NDSB-201, +/- 5 mM EDTA, ~0.2 mg/ml protein; TSA: 50 mM HEPES pH 7.5, 150 mM NaCl, 20-99 C; crystals: 28% PEG MME 2000, 0.1 M bis-Tris pH 6.5, 20 C; conditions: protein: recombinant; tags: N-terminal His6-3C, optionally removed by 3C protease; chain copies: 4
# HMPV M2-1 [2] = target: T1, HMPV M2-1; assay: SAXS titration; Zn2+ (zinc finger intact); 150 mM NaCl, 500 mM NDSB-201; Rg increase, aggregation; SAXS: 20 mM Tris pH 7.5, 150 mM NaCl, 500 mM NDSB-201, +/- 5 mM EDTA, ~0.2 mg/ml protein; TSA: 50 mM HEPES pH 7.5, 150 mM NaCl, 20-99 C; crystals: 28% PEG MME 2000, 0.1 M bis-Tris pH 6.5, 20 C; conditions: protein: recombinant; tags: N-terminal His6-3C, optionally removed by 3C protease; chain copies: 4
Binder,binding result (HMPV M2-1 [1]),binding result (HMPV M2-1 [2])
B1,binds,–
B2,–,binds

# Reference: article PMC4051120, “Drastic changes in conformational dynamics of the antiterminator M2-1 regulate transcription efficiency in Pneumovirinae”
